From article PMC3808539, “CtpB Assembles a Gated Protease Tunnel Regulating Cell-Cell Signaling during Spore Formation in Bacillus subtilis” (Cell, 2013)

Set-up: species or system Bacillus subtilis
Text: Figure S1 CtpB Autocleavage and Dimerization, Related to Figures 1 and 2 (A) SDS-PAGE analysis monitoring auto-degradation of CtpB. […] (C) Comparison of the gelfiltration profiles of wild-type CtpB and a Δ86 construct lacking the N-terminal dimerization domain. An SDS-PAGE analysis is shown below the chromatograms. (D) Cleavage assays comparing the activity of wild-type and Δ86 CtpB against the 4B predigested 4FAproc substrate.

Row | Molecule | auto-degradation
1 | WT: wild-type CtpB, PDZ-protease of B. subtilis (protein, UniProt O35002 24-480, looked up) Carboxy-terminal processing …: GINLLEMDKPQTAAVPATAQADSERDKAMDKIEKAYELISNEYVEKVDREKLLEGAIQGMLSTLNDPYSVYMDKQTAKQFSDSLDSSFEGIGAEVGMEDGKIIIVSPFKKSPAEKAGLKPNDEIISINGESMAGKDLNHAVLKIRGKKGSSVSMKIQRPGTKKQLSFRIKRAEIPLETVFASEKKVQGHSVGYIAISTFSEHTAEDFAKALRELEKKEIEGLVIDVRGNPGGYLQSVEEILKHFVTKDQPYIQIAERNGDKKRYFSTLTHKKAYPVNVITDKGSASASEILAGALKEAGHYDVVGDTSFGKGTVQQAVPMGDGSNIKLTLYKWLTPNGNWIHKKGIEPTIAIKQPDYFSAGPLQLKEPLKVDMNNEDVKHAQVLLKGLSFDPGREDGYFSKDMKKAVMAFQDQNKLNKTGVIDTRTAETLNQQIEKKKSDEKNDLQLQTALKSLFVN | auto-degraded at position 36 and 42
2 | CtpBS309A: inactive CtpB S309A mutant (protein, UniProt O35002 24-480, looked up, variant S309A) Carboxy-terminal processing …: GINLLEMDKPQTAAVPATAQADSERDKAMDKIEKAYELISNEYVEKVDREKLLEGAIQGMLSTLNDPYSVYMDKQTAKQFSDSLDSSFEGIGAEVGMEDGKIIIVSPFKKSPAEKAGLKPNDEIISINGESMAGKDLNHAVLKIRGKKGSSVSMKIQRPGTKKQLSFRIKRAEIPLETVFASEKKVQGHSVGYIAISTFSEHTAEDFAKALRELEKKEIEGLVIDVRGNPGGYLQSVEEILKHFVTKDQPYIQIAERNGDKKRYFSTLTHKKAYPVNVITDKGSAAASEILAGALKEAGHYDVVGDTSFGKGTVQQAVPMGDGSNIKLTLYKWLTPNGNWIHKKGIEPTIAIKQPDYFSAGPLQLKEPLKVDMNNEDVKHAQVLLKGLSFDPGREDGYFSKDMKKAVMAFQDQNKLNKTGVIDTRTAETLNQQIEKKKSDEKNDLQLQTALKSLFVN | no further degradation
